A short description of data set [1]: Inhibition experiment with vanillin: degradation of phosphoric acid swollen cellulose. The data set is classed as biochemical. The conditions noted are these: enzyme 0.5 μM, 1 hour, 50° C., parent at 0 mM = 100%.
A short description of data set [2]: Activity to degrade phosphoric acid swollen cellulose. The data set is classed as biochemical. The conditions noted are these: 1% phosphoric acid swollen cellulose, pH 5.2, enzyme 0.5 μM, 1 hour, 50° C.; glucose generated by each parent endoglucanase = 100%. The method, boiled down:
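Enzyme added to phosphoric acid swollen cellulose in 50 mM acetate buffer, pH 5.2; 1 h reaction at 30–85 °C, stopped by pH change if needed. Glucose released measured by glucose kit; activity expressed relative to parent endoglucanase set at 100%.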

Data set [3] is described as follows: Saccharification of lignocellulose 1 with Celluclast and endoglucanase. The data set is classed as biochemical, Rice straw. The conditions noted are these: 5 wt % Lignocellulose 1, pH 5.2, 50° C., 24 hours; 1.0 mg/mL cellulase + 0.1 mg/mL endoglucanase. The method, boiled down:
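Rice straw pretreated with liquid ammonia (15 min room temperature, then 1 h at 150° C), suspended at 5 wt % in 50 mM acetate pH5.2. Hydrolysed at 50° C for 24 h with 1.0 mg/mL Trichoderma reesei cellulase plus 0.1 mg/mL mutant or wild-type endoglucanase; glucose measured.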

A short description of data set [4]: Saccharification of lignocellulose 2 with Celluclast and endoglucanase. The data set is classed as biochemical, Rice straw. The conditions noted are these: 5 wt % Lignocellulose 2, pH 5.2, 50° C., 24 hours; 1.0 mg/mL cellulase + 0.1 mg/mL endoglucanase. The method, boiled down:
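Dilute-sulfuric-acid-pretreated rice straw (10 wt% solids, pH ~5) suspended at 5 wt% in 50 mM acetate buffer pH 5.2 was digested 24 h at 50 °C with 1.0 mg/mL Trichoderma reesei Celluclast plus 0.1 mg/mL mutant or wild-type endoglucanase; glucose released was measured.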

A short description of data set [5]: Saccharification of lignocellulose 3 with Celluclast and endoglucanase. The data set is classed as biochemical, Rice straw. The conditions noted are these: 5 wt % Lignocellulose 3, pH 5.2, 50° C., 24 hours; 1.0 mg/mL cellulase + 0.1 mg/mL endoglucanase. The method, boiled down: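 Hydrothermally pretreated rice straw (180° C., 20 min) at 5 wt % in 50 mM acetate buffer pH 5.2 digested at 50° C. for 24 h with Celluclast 1.0 mg/mL plus mutant or wild-type endoglucanase 0.1 mg/mL. Released glucose measured over time.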

Data set [6] is described as follows: Saccharification of lignocellulose 1 with Trichoderma reesei culture solution and endoglucanase. The conditions noted are these: Lignocellulose 1, 24 hours; cellulase 1.0 mg/mL + endoglucanase 0.1 mg/mL + β-glucosidase (Novozyme 188) 0.01 mg/mL. The data set is classed as biochemical, Rice straw. The gist of the method:
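Substrate was liquid-ammonia-treated rice straw (1 h, 150 °C), suspended at 5 wt % in 50 mM acetate buffer pH 5.2 and hydrolysed for 24 h at 50 °C. Enzymes: T. reesei culture solution 1.0 mg/mL, mutant or wild-type endoglucanase 0.1 mg/mL, β-glucosidase 0.01 mg/mL. Glucose released was measured.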

Data set [7] in a line: Saccharification of lignocellulose 3 with Trichoderma reesei culture solution and endoglucanase. The data set is classed as biochemical, Rice straw. The conditions noted are these: Lignocellulose 3, 24 hours; cellulase 1.0 mg/mL + endoglucanase 0.1 mg/mL + β-glucosidase (Novozyme 188) 0.01 mg/mL. The method, boiled down: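 Hydrothermally treated rice straw (180 °C, 20 min, 10 MPa; solid fraction) suspended at 5 wt % in 50 mM acetate buffer pH 5.2, hydrolysed 24 h at 50 °C. Enzymes: T. reesei culture-solution cellulase 1.0 mg/mL, mutant or wild-type endoglucanase 0.1 mg/mL, β-glucosidase 0.01 mg/mL; glucose generated measured.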

Data set [8] is described as follows: Saccharification of lignocellulose 2 with Trichoderma reesei culture solution and endoglucanase. The conditions noted are these: Lignocellulose 2, 24 hours; cellulase 1.0 mg/mL + endoglucanase 0.1 mg/mL + β-glucosidase (Novozyme 188) 0.01 mg/mL. The data set is classed as biochemical, Rice straw. The gist of the method:
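Dilute-sulfuric-acid-autoclaved rice straw (pH ~5) suspended at 5 wt % in 50 mM acetate pH 5.2, hydrolysed 24 h at 50 °C. Enzymes: T. reesei culture solution 1.0 mg/mL, mutant or wild-type endoglucanase 0.1 mg/mL, β-glucosidase 0.01 mg/mL. Glucose released was measured.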

Data set [9] in a line: Inhibition experiment with ferulic acid: degradation of phosphoric acid swollen cellulose. The data set is classed as biochemical. The conditions noted are these: enzyme 0.5 μM, 1 hour, 50° C., parent at 0 mM = 100%.
Description: This substance was diluted using buffer and water to obtain a 2 wt % mixture so that the final concentration of sodium acetate was 50 mM (pH 5.2). This was designated as phosphoric acid swollen cellulose and used for the following examples.
The activity of the wild-type and the mutant endoglucanases to degrade phosphoric acid swollen cellulose was measured in the presence of ferulic acid. 1% phosphoric acid swollen cellulose/50 mM acetate buffer (pH 5.2) was used as a substrate. Ferulic acid (Sigma Aldrich) was added at final concentrations of 0, 5, 10, and 15 mM. The enzymes prepared in Reference Example 1 and Example 2 were each added at a final concentration of 0.5 μM, followed by 1 hour of enzymatic reaction at 50° C.

B1: EGIa1 Mutant: mutant EGIa1, SEQ ID NO: 8; residue corresponding to 273rd tryptophan substituted with alanine (protein)
chain: MNFFVKNGEIYKLDGATGKPKIIYLFGVNWFGFETRDYVVHGLWARNWVDMLQQIKSLGFNAIRLPFCTYSVQEGTMPNSNAINYNINPDLQGLTSIEIMEKIVAKANELGIYILLDYHRLGCDQIEPLWYSDQVSEQQFIDTWVSVAKRFAKYPNVIGADIRNEPWGATWGTDDPATDWRLAVEKVAPKILEVAPHWLIFVEGTYKTRPDIDERSWYPYYSYYVFAGENLRAVRYYPVRLPYEKIVYSPHTYGPDVFRQPYFDDPIFPENMRSIWMERFGYVKTELGYALVVGEFGGRYGHGGDPRDIIWQIKFVDWLIENRICNFFYWSWNANSGDTGGILKDDWTNIWEDKYQNLKRLMDYCSSIN
modifications: Ignisphaera aggregans EGIa1 W227A
notes: residue corresponding to 273rd tryptophan substituted with alanine
On to B1, for which the “Relative activity to degrade phosphoric acid swollen cellulose” value in data set [1] (vanillin 0 mM) is given as 100%; in data set [1] (vanillin 5 mM) it was 100%; in [1] (vanillin 10 mM), 100%; in data set [1] (vanillin 15 mM) it was 95%; in data set [9] (ferulic acid 0 mM) it was 100%; in data set [9] (ferulic acid 5 mM), 100%. Besides, the “Relative activity to degrade phosphoric acid swollen cellulose” value is 100% in data set [9] (ferulic acid 10 mM) and 95% in data set [9] (ferulic acid 15 mM). Besides, the Relative activity in data set [2] is on record as 100%. The “Concentration of glucose generated, Celluclast + Mutant” value in data set [3], in data set [4] and in [5] was 15 g/L in each case. Also, the “Concentration of glucose generated, Culture solution + Mutant” value in [6], in data set [7] and in [8] was 12 g/L in each case.

B2: EGIa2 Wild-type: Ignisphaera aggregans-derived endoglucanase 2, SEQ ID NO: 13, parent endoglucanase (protein)
chain: MYREKSCGSTIMDVYYRARGTEIYIERKGVEKPLYIFGINWAGFEWRGRVVGGLHVRNWVEILQQIKSLGFNAIRIPFCAESVKPGVFPAPRTINYALNRDLIGLDSISIMEKIIAKAAELELYILLCFHNISCLIMEPLWYTPLFSEQQFIDTWIRVAKRFSRYWNVIGAELYNNPHGRLPPSYYYESGECATWGMGNPKTDWNLAAERIGRAVLEVAPHWLIIVKGTQLTNPRSDNVPLYPEATYWGENLRAVRDYPVNLPRDKLVYGVDIYGPDVYYMPYFNDPNIFPDKLYLIWDQNWGYVKKELGYPLIIAEFGGLYGRGDPRDVIWHQKLVEYMISNNICHWFYNALNPDNPSTAGLLENDWRTVREDKMALLRRAMDYCRERYGNI
modifications: Ignisphaera aggregans EGIa2
For the molecule B2, the “Relative activity to degrade phosphoric acid swollen cellulose” value is reported as 100% in [1] (vanillin 0 mM); 50% in [1] (vanillin 5 mM); 45% in data set [1] (vanillin 10 mM); 40% in [1] (vanillin 15 mM); 100% in data set [9] (ferulic acid 0 mM); 60% in data set [9] (ferulic acid 5 mM). In addition, the “Relative activity to degrade phosphoric acid swollen cellulose” value is on record as 60% in data set [9] (ferulic acid 10 mM) and 55% in data set [9] (ferulic acid 15 mM). In [2], the Relative activity is on record as 100%. In addition, the “Concentration of glucose generated, Celluclast + Wild-type” value in data set [3], in data set [4] and in data set [5] was 11 g/L in each case. Besides, the “Concentration of glucose generated, Culture solution + Wild-type” value in data set [6], in data set [7] and in [8] was 8 g/L in each case.

B3: EGIa2 Mutant: mutant EgIa2, SEQ ID NO: 14; residue corresponding to 273rd tryptophan substituted with alanine (protein)
chain: MYREKSCGSTIMDVYYRARGTEIYIERKGVEKPLYIFGINWAGFEWRGRVVGGLHVRNWVEILQQIKSLGFNAIRIPFCAESVKPGVFPAPRTINYALNRDLIGLDSISIMEKIIAKAAELELYILLCFHNISCLIMEPLWYTPLFSEQQFIDTWIRVAKRFSRYWNVIGAELYNNPHGRLPPSYYYESGECATWGMGNPKTDWNLAAERIGRAVLEVAPHWLIIVKGTQLTNPRSDNVPLYPEATYAGENLRAVRDYPVNLPRDKLVYGVDIYGPDVYYMPYFNDPNIFPDKLYLIWDQNWGYVKKELGYPLIIAEFGGLYGRGDPRDVIWHQKLVEYMISNNICHWFYNALNPDNPSTAGLLENDWRTVREDKMALLRRAMDYCRERYGNI
modifications: Ignisphaera aggregans EGla2 W248A
notes: as for B1
Turning to B3, the “Relative activity to degrade phosphoric acid swollen cellulose” value worked out at 100% in data set [1] (vanillin 0 mM); 95% in [1] (vanillin 5 mM); 90% in [1] (vanillin 10 mM); 90% in data set [1] (vanillin 15 mM); 100% in data set [9] (ferulic acid 0 mM); 95% in data set [9] (ferulic acid 5 mM). The “Relative activity to degrade phosphoric acid swollen cellulose” value in [9] (ferulic acid 10 mM) and in data set [9] (ferulic acid 15 mM) was 90% in each case. Besides, the Relative activity in data set [2] amounted to 100%. The “Concentration of glucose generated, Celluclast + Mutant” value worked out at 16 g/L in data set [3], 16 g/L in data set [4] and 14 g/L in data set [5]. The “Concentration of glucose generated, Culture solution + Mutant” value is listed as 13 g/L in data set [6], 11 g/L in data set [7] and 13 g/L in data set [8].

The values are drawn from patent US9193963B2, “Mutant endoglucanase” (Toray Industries, Inc., priority 2011, dated 2015).
